Reference: the RNAGym collection of RNA variant scans (doi:10.1073/pnas.2313332121)

B1: TPR t1 (parent)
chain: GACCAAUCUGCCCUCAGAGCUCGAGAACAUCUUCGGAUGCAGAGGAGGCAGGCUUCGGUGGCGCGAUAGCGCCAACGUCCUCAACCUCCAAUGCAUCCCACCACAUGAUGAUGCCUGAAGAGCCUUGGUUUUUUG

Variants of: B1
Assay: polymerase ribozyme fitness, log enrichment relative to wild type (log ratio); higher = more active; in vitro selection for triplet polymerase activity
How it was run: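 Input and output libraries were sequenced on Illumina after a single in vitro selection round, run in triplicate on PCR-built, transcribed mutant libraries of each subunit of a heterodimeric triplet polymerase ribozyme. Selection annealed libraries to a biotinylated primer, the partner subunit and triplets, incubated them frozen at −7 °C, then gel-excised extended constructs for streptavidin-bead capture and RT-PCR. Genotypes with ≥10 input reads and ≥1 read per output were kept. Fitness is the logarithm, taken in base 2, of genotype enrichment divided by wild-type enrichment, using inverse-variance-weighted replicate averages.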

Point of comparison: C11A U54G U81A, “polymerase ribozyme fitness (log ratio)” value -2.11. Against it:
- G10C C15A A50U C115U — lower, -5.25
- C11A G61A G93A C101G U112A U132A — higher, -1.04
- G10A U55G — higher, -0.319
- G10A G52C — higher, -0.471
- C11A G52C C56A — lower, -2.98
- G10A G42A A43U — higher, -1.82
- G10U A29G G52U C79G — lower, -2.85
- G10A G48A G52A — higher, -1.11
- G10U U109A — lower, -4.67
- G10U G77A G93U U129C — within 0.2 log units, -2.07
- C11G A43G U59A C64U — within 0.2 log units, -2.3
- C11G A18C U125A — within 0.2 log units, -2.13
- G10U C20A A50C C102A C114U — lower, -6.03
- G10U G42U G45A G61U C85U — within 0.2 log units, -2.25
- G10U U55A G71C — higher, -1.11
- C11G A37C G61U — higher, -0.241
- G10U G61A C123G — higher, 1.03
- C11G A18G C97U G110A — lower, -3.11
- C11A G36U G48C — lower, -3.57
- G10A G93A — higher, 0.205
- G10A C49G U133A — higher, -0.21
- G10A G44A G63C — higher, -0.955
- G10A C70G G120U — higher, -1.35
- G10A U130C — higher, 0.4
- G10U C13U C70A — higher, -0.716
- G10C A43G G44C C49U G52C C56G G77A — lower, -6.25
- C11G A41C C56U G93A C123G G135U — lower, -3.49
- G10A G110A — higher, -1.12
- G10A C22U G36A A43C C49G U92A C98A G120C U125G — lower, -7.92
- C11A C56U — higher, -1.61
- C11A C124U — higher, 0.668
- C11A G47C — lower, -2.77
- G10U C13A A16U G110C U125A — lower, -6.47
- C11A U30C — lower, -5.07
- C11A C64A A108U G110A — lower, -6.85
- G10A C104U — higher, -0.557
- G10C C73G C85G — lower, -2.53
- G10A C49A — higher, 0.131
- G10U U59C U96G G117A — lower, -4.44
- G10A C76G G120A — higher, 1.28
- G10A G51U C56G — lower, -5.12
- C11A — higher, -1.27
- C11G — higher, 0.294
- G10A G52U G63A C70G — lower, -2.51
- G10C A74G — higher, -1.26
- C11A G69C A121G — higher, -0.0496
- G10A A18U C40U U59G G93A — within 0.2 log units, -2.28
- G10C U38G C53G G63C A111U C124U U133G — lower, -5.15
- G10U A50C C73A U78G A90G — higher, -0.824
- G10U G47C G51A C53G C56U — lower, -2.84
- G10C G71U C114A A118C — lower, -6.14
- G10A A37G G61C C85G C86A G113A C124G U130A — lower, -5.79
- G10C U106C G107C — lower, -5.64
- G10U C31G G39C C64U G110A G113U — lower, -6.42
- G10A C13U C64A C70A G113A U125C — lower, -6.12
- G10C C72U — higher, -1.32
- G10U G36C C86G G128C — lower, -5.29
- G10A C11U C40U C72G C104G C124U U133C — lower, -5.5
- C11A G60C C86U — higher, -1.76
- C11G A41C U87A G122A — higher, -0.672
- G10C C89U U129C — lower, -2.54
- G10C G42C G77A C85A C86G C114A — lower, -5.24
- C11A G47C C72G — lower, -3.64
- G10U C34A G44A C72A — lower, -5.99
- G10C U78C U106A U109G — lower, -4.27
- G10C C99U — lower, -4.44
- G10A C72G G77C A95G C101G — lower, -3.03
- G10U C89A C114A — lower, -2.81
- C11A G17U G61C A84G C124A — lower, -4.74
- C11A G42C C72A — higher, -1.79
- G10U A18U A29U U54A A121C — higher, -1.32
- G10U C98A C123A — lower, -4.36
- G10A U55G G69C — higher, -1.36
- C11A G61A C104A G110A — lower, -5.34
- C11A A37G G60U C101A U131G — lower, -2.57
- C11G C12G A46G G71U — higher, -0.917
- G10U C73A U78G A111G — higher, 0.173
- G10C G61U U109C — lower, -5.18
- G10A A29G A43U C70U C89A — lower, -4.19
- G10A C86A — higher, -0.0637
- C11A A111U — lower, -4.43
- G10U U21G C70A — lower, -5.22
- G10U U59C A95U C102U — lower, -3.58
- G10A C28U A46U A83C A84C C124A — lower, -2.98
- G10C C11G C22G C76U — lower, -4.64
- G10U G51A G61U A100C G113A G120A — lower, -4.29
- C11A G17U — lower, -3.57
- G10C C64U C79U A105G — lower, -3.38
- G10C C11U C20U G48A C82U — lower, -3
- G10C G63U — lower, -2.32
- G10A C62A U96A — within 0.2 log units, -2.02
- C11G C12A C40U C99U G117A C124G — lower, -6.76
- C11A G69U G93A G128U — lower, -3.27
- C11A G17A C124A G128A — lower, -5.02
- C11A G61C — lower, -2.39
- G10U C11G — higher, 0.195
- G10U G39U G63U G120A — higher, -0.0221
- G10A C56A G110A — higher, -0.729
- G10U C13G C80U G135U — within 0.2 log units, -1.95
- C11A C70A A90G — lower, -3.13
- G10C A27C U55C C70U — lower, -7.04
- G10U C72U C80U — higher, -0.683
- C11G C12A G63A — higher, -0.541
- C11A C12A A41G C89U — within 0.2 log units, -2.15
- C11A C72G A111U — lower, -6.18
- G10U C13A C72U U109A — lower, -6.62
- C11A C88A — within 0.2 log units, -2.15
- G10U G77U U78G C114A — lower, -2.65
- G10U C86A C102U — lower, -2.34
- C11A C20U C73A A118U U133A — lower, -2.94
- G10U C13G G45U C56A U87A C94U C124G — higher, -0.526
- C11G A37U A41U A95C U106C C124A — higher, -1.05
- C11A A95G — higher, -1.37
- C11A A74G — higher, -1.56
- G10C C11A — higher, -1.06
- G10A G42U C49A G61C C98A U112G U130G — lower, -7.46
- C11A A18U A68G G120U — lower, -4.2
- G10U G19C A37U C72A C123G U130C — higher, -1.39
- G10A A26C G36U G45C G51U C70U C79A C98U C123U G127U — lower, -8.21
- C11A U21C G52C A121C — higher, 0.244
- C11A G60A U112A A118U — higher, 0.704
- C11A C56U A105U — lower, -3.49
- G10A G45U G113A — higher, -1.45
- G10C G47U C89U — lower, -5.13
- C11G A18G C89U U96A — lower, -4.23
- C11G A18U G44A G69U — higher, 0.139
- G10A C22U C34U C72A C115G A121C G122U — lower, -8.04
- G10C G19C A43G C72U U112C C123A — higher, -1.54
- G10A C53U G61C G122A G127U U129A — higher, 0.0511
- G10A C15A G44U C56U A74G — lower, -3.61
- C11G A18C — higher, -1.71
- G10C A41C G71C G122A — within 0.2 log units, -2.21
- C11G A18U G48U C49U G61A — lower, -3.32
- C11A U67C — lower, -5.83
- C11A C20U G42C C53U — lower, -4.13
- G10C C15U C53U C123A — higher, 0.897
- C11A G45U U125G G127A — lower, -4
- C11A G71U C104A U129G G135U — lower, -5.56
- G10A C88G A111C — higher, -0.763
- C11G A18G C49G C56U — lower, -3.38
- G10U A26G — lower, -2.71
- G10A C20U G65A C70A A91U C104G G120U — lower, -6.74
- G10A G39U G51A C70U — lower, -5.24
- G10U G47A — higher, -0.776
- G10U G71C G135U — lower, -3.12
- C11G A66G U106A — higher, -0.837
- C11A C12U U38A U78C U96A — lower, -2.53
- C11A C13U A41U — lower, -2.84
- G10C U14C C15U C94U C97U U112A — higher, -1.07
- C11A U78A G120A — higher, 1.31
- G10U C73G U92A C101U C104U — lower, -4.21
- C11G A16U A24G G47C C72A A111C — lower, -7.64
- G10C G71A U81C A100U — lower, -3.62
- C11A C12G C70A A111C — lower, -3.93
- G10U A43U G45C U78A — lower, -2.4
- C11A G48U G60U C123A — higher, 0.672
- G10U C70A — higher, -1.66
- C11G A50C U92G C114A G122C U131C — lower, -3.35
- G10A G47C G63A C97U C101A C102U — lower, -8.22
- G10U A103G — lower, -6.29
- G10U G39C A46C U116G — lower, -3.17
- C11A A119C C124G — lower, -4.46
- C11A C13A A74C — lower, -2.72
- G10A A24C A29G C34U G44A C53U C98U A111U — lower, -7.41
- G10A C11A G42U G48A G63A A66U A91G C115U — lower, -6.69
- C11A G60U — higher, -0.589
